Data from the nanobody polyreactivity screen of Harvey et al. (2022).

Assay: yeast display, Sf9 membrane polyspecificity reagent, FACS + sequencing; frameworks hold sequencing errors
Outline: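 A synthetic nanobody library was expressed on Saccharomyces cerevisiae BJ5465 by galactose induction for 36–48 hours. The library was stained for 1 hour at 4 °C with 10% biotinylated, detergent-solubilized Sf9 membrane reagent and enriched with streptavidin microbeads before FACS. Low and high (top ~1%) gates were set on anti-HA fluorescence for expression and streptavidin fluorescence for reagent binding, and each polyreactivity label reflects the gate of origin.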

Which “polyreactivity (PSR sort gate)” value does the source give for “QVQLVESGGGLVQAGGSLRLSCAASGRTFLGYAMGWYRQAPGKERELVAAINRSGGRTYYADSVKGRFTISRDNAKNTVYLQMNSMKQEDTSVYYCAAYTSYSAYDYWGQGTQVTVSS” here?
Its value is “high polyreactivity”.

Which “polyreactivity (PSR sort gate)” value does the source give for “QVQLVESGGGLVQAGGSLRLSCAASGRTFLGYAMGWYRQAPGKERELVAAISYSGSSTYYADSVKGRFTITRDNAKITVYLQMNSLKPEDTAVYYCAAQFFFLFDYWGQGTQVTLSS” here?
The value was “low polyreactivity”.

For “QVQLVESGGGLVQAGGSLRLSCAASGRTFLINAMGWYRQAPGKERELVAAITQSGGSTYYADSVKGRFTISRDNAKNTVYLQMNSLKPEDTAVYYCNAQSWYIVPYDYWGQGTQVTVSS”, which “polyreactivity (PSR sort gate)” value is on record?
The value was “low polyreactivity”.

Which “polyreactivity (PSR sort gate)” value does the source give for “QVQLVESGGGLVQAGGSLRLSCAASGRTFLLNAMGWYRQAPGKERELVAAMTRSGVITYYADSVKGRFTISRDNAKNTVYLQMNSLKPEDTAVYYCAARRDARSTEYGYWGQGTQVTVSS” here?
Its value is “high polyreactivity”.

Which “polyreactivity (PSR sort gate)” value does the source give for “QVQLVESGGGLVQAGGSLRLSCAASGRTFLLNAMGWYRQAPGKERELVATITYSGGITYYADSVKGRFTISRDNAKNTVYLQMNSLKPEDTAVYYCSTSGPQYYSRNFDYWGQGTQVTVSS” here?
Its value is “low polyreactivity”.

For “QVQLVESGGGLVQAGGSLRLSCAASGRTFLLYAMGWYRPAPGKERELVAAIRSSTVSTYYADSVKGRFTISRDNAKNTVYLQMNSLKPEDTAVYYCAASRPKYGPSGVRYNYWGQGTQVTVSS”, which “polyreactivity (PSR sort gate)” value is on record?
The value was “high polyreactivity”.

Which “polyreactivity (PSR sort gate)” value does the source give for “QVQLVESGGGLVQAGGSLRLSCAASGRTFLNYPMGWYRPAPGKERELVASISSSGARTYYADSVKGRFTISRDNAKNTVYLQMNSLKPEDTAVYFCAVTAGRGGYPQGGVTRGYWGQGTQVTVSS” here?
The value was “high polyreactivity”.

With “QVQLVESGGGLVQAGGSLRLSCAASGRTFLPNAMGWYRQAPGKERELVAAINWRGASTYYADSVKGRFTISRDNAKNTVYLQMNSLKPEDTAVYYCAVDSHYQSYYYRRYDYWGQGTQVTVSS” as the sequence, how does the “polyreactivity (PSR sort gate)” value read?
The value was “low polyreactivity”.

Which “polyreactivity (PSR sort gate)” value does the source give for “QVQLVESGGGLVQAGGSLRLSCAASGRTFLPNPMGWYRQAPGKERELVAVITSGGSTNYADSVKGRFTISRDNAKNTVYLQMNSLKPEDTAVYYCAADRYSYFYIGYDYWGQGTQVTVSS” here?
Its value is “low polyreactivity”.

Which “polyreactivity (PSR sort gate)” value does the source give for “QVQLVESGGGLVQAGGSLRLSCAASGRTFLPYAMGWYRQAPGKERELVADINWGGGSTYYADSVKGRFTISRDNATNTVYLQMNSLKQEDTALYYCATDDGYQYWYYQWYYWGQGTQVTVSS” here?
Its value is “low polyreactivity”.

Which “polyreactivity (PSR sort gate)” value does the source give for “QVQLVESGGGLVQAGGSLRLSCAASGRTFLRNAMRWYRQAPGKERELVATISIGGRTYYADSVKGRFTISRDNAKNTVYLQMNSLKPEDTAVYYCNASTSILSLDWEYGSWGQGTQVTVSS” here?
Its value is “low polyreactivity”.

For “QVQLVESGGGLVQAGGSLRLSCAASGRTFLRYAMGWYRQAPGKERELVAAISVSGGNTYYADSVKGRFTISRDNAKNTVYLQMNSLKPEDTAVYYCNKARLAAVFSYPYGYWGQVTQVTVSS”, which “polyreactivity (PSR sort gate)” value is on record?
The value was “low polyreactivity”.

For “QVQLVESGGGLVQAGGSLRLSCAASGRTFLRYAMGWYRQAPGTERELVAAISWSGGRTYYADSVKGRFTISRDNAKNTVYLQMNSLKPEDTAVYYCNKVVLYGAHYYYWGQGTQVTVSS”, which “polyreactivity (PSR sort gate)” value is on record?
Its value is “high polyreactivity”.

For “QVQLVESGGGLVQAGGSLRLSCAASGRTFLSYMGWYRQAPGKERELVAISRSGTSTYYADSVKGRFTISRDNAKNTVYLQMNSLKPEDTAVYYCAAETNTWYLFDYWGQGTQVTVSS”, which “polyreactivity (PSR sort gate)” value is on record?
Its value is “high polyreactivity”.

Which “polyreactivity (PSR sort gate)” value does the source give for “QVQLVESGGGLVQAGGSLRLSCAASGRTFLTNAMGWYRQAPGKERELVAAIRWSGTSTYYADSVKGRFTISRDNAKNTVYLQMNSLKPEDTAVYYCAARKVYGSKYGYWGQGTQVTVSS” here?
Its value is “high polyreactivity”.

For “QVQLVESGGGLVQAGGSLRLSCAASGRTFLTNAMGWYRQAPGKERELVAAISSGASTNYADSVKGRFTISRDNAKNTVYLQMNSLKPEDTAVYYCAAQLTDYQSKTLSYDYWGQGTQVTVSS”, which “polyreactivity (PSR sort gate)” value is on record?
Its value is “low polyreactivity”.

For “QVQLVESGGGLVQAGGSLRLSCAASGRTFLTYAMGWYRQAPGKERELVAAISKRGGSTYYADSVKGRFTISRDNAKNTVYLQMNSLKPEDTAVYFCAADNGNHYGFWGQGTQVTVSS”, which “polyreactivity (PSR sort gate)” value is on record?
The value was “high polyreactivity”.

For “QVQLVESGGGLVQAGGSLRLSCAASGRTFLVYAMGWYRQAPGKERELVAAITWTGGTTYYADSVKGRFTISRDNAKNTVYLQMNSLKPEDTAVYYCNKRGSAWLVEEVDYWGQGTQVTVSS”, which “polyreactivity (PSR sort gate)” value is on record?
Its value is “low polyreactivity”.

Which “polyreactivity (PSR sort gate)” value does the source give for “QVQLVESGGGLVQAGGSLRLSCAASGRTFLVYAMGWYRQPPGTERELVAAITSGGSTYYADSVKGRFTISRDNAKNTVYLQMNSLKPEDTAVYYCAAKIRGYPRRRYDYWGQGTQVTVSS” here?
The value was “high polyreactivity”.

With “QVQLVESGGGLVQAGGSLRLSCAASGRTFLYNAMGWYRQAPGKERELVAAISGRGGRTYYADSVKGRFTISRDNAKNTVYLQMNSLKPEDTAVYYCAASQYYRWVIGYDFEYDYWGQGTQVTVSS” as the sequence, how does the “polyreactivity (PSR sort gate)” value read?
Its value is “high polyreactivity”.

With “QVQLVESGGGLVQAGGSLRLSCAASGRTFLYNTRGWYRQAPGKERELVATITGSGASTYYADSVKGRFTISRDNAKNTVYLQMNSLKPEDTAVYYCATDNVYAYDYWGQGTQLTVSS” as the sequence, how does the “polyreactivity (PSR sort gate)” value read?
The value was “high polyreactivity”.

For “QVQLVESGGGLVQAGGSLRLSCAASGRTFLYSTMGWYRQAPGKERELVAAISKSVGRTYYADSVKGRFTISRDNAKNTVYLQMNSLKPEDTAVYYCAKRWYAGAQHGFDYLGQGTQVTVSS”, which “polyreactivity (PSR sort gate)” value is on record?
The value was “low polyreactivity”.

For “QVQLVESGGGLVQAGGSLRLSCAASGRTFLYYAMGWESQGPGKERELVAAITGRGGSTYSADSVKGRFTISRDNAKNTVYLQMNILKPEDTAVYYCAARDNWIRRDGYWGQGTQVTVSS”, which “polyreactivity (PSR sort gate)” value is on record?
Its value is “high polyreactivity”.

Which “polyreactivity (PSR sort gate)” value does the source give for “QVQLVESGGGLVQAGGSLRLSCAASGRTFLYYTMGWYRQAPGKERELVAAINWSGGRTYYADSVKGRFTISRDNAKNTVYLQMNSLKPEDTAVYYCNADSRYRYDYWGQGTQVTVSS” here?
The value was “low polyreactivity”.

With “QVQLVESGGGLVQAGGSLRLSCAASGRTFNGYALGGYRQAPGKERELVAAICSSGGSTYYADSVKGRFTISRDNAKNTVYLQMNSLKPEDTAVYYCAARRANGFNYWGQGTQVTVSS” as the sequence, how does the “polyreactivity (PSR sort gate)” value read?
Its value is “high polyreactivity”.

Which “polyreactivity (PSR sort gate)” value does the source give for “QVQLVESGGGLVQAGGSLRLSCAASGRTFNGYAMGWYRQAPGKERELVAAISSSGSTNYADSVKGRFTISRDNAKNTVYLQMNSLKPEDTAVYYCAAEYYAYESVEYDYWGQGTQVTVSS” here?
The value was “low polyreactivity”.

Which “polyreactivity (PSR sort gate)” value does the source give for “QVQLVESGGGLVQAGGSLRLSCAASGRTFNHYAMGWYSQAPGKVRELVAGITISGGSTYYADSVKGRFTISRDNAKNTVYLQMNSLKPEDTPVYYCKAVYEYYRQSKGNMDYWGQGTQGTVSS” here?
The value was “low polyreactivity”.

Which “polyreactivity (PSR sort gate)” value does the source give for “QVQLVESGGGLVQAGGSLRLSCAASGRTFNLYAMVWSRQAPGKERELVAAISLSGGRTYYADSVKGRITISRDNAKNTVFLQMNRLNPEDTAVYYCNTDTSRRAVQYDYWGQGTQVSVSS” here?
Its value is “high polyreactivity”.

With “QVQLVESGGGLVQAGGSLRLSCAASGRTFNPYAMGWYRQAPGKERELVAVISYIGGSTYADSVKGRFTISRDNEKNTVYLQMNSLKPEDTAVYYCNRATFGQWGCDYWGQGTQVTVSS” as the sequence, how does the “polyreactivity (PSR sort gate)” value read?
The value was “high polyreactivity”.

With “QVQLVESGGGLVQAGGSLRLSCAASGRTFNPYSLGWYRQAPGIVRELVAAISYRGGSTYNADSVKGRFTISRDNAKNTVYLQLNSLKPEDTAVYYCAKRGYASGSKWDYGYWGQGTQVTVSS” as the sequence, how does the “polyreactivity (PSR sort gate)” value read?
The value was “high polyreactivity”.

With “QVQLVESGGGLVQAGGSLRLSCAASGRTFNRYGMGWYRQAPGKERELVASITSGGSTNYADSVKGRFTISRDNAKNTVYLQMNSLKPEDTAVYYCAKRSIGRYPRTYDYWGQGTQVTVSS” as the sequence, how does the “polyreactivity (PSR sort gate)” value read?
Its value is “low polyreactivity”.

Which “polyreactivity (PSR sort gate)” value does the source give for “QVQLVESGGGLVQAGGSLRLSCAASGRTFNSNAMGWYRQAPGKERELVAAISGSGGSTYYADSVKGRFTISRDNAKNTVYLQMNSLKPEDTAVYYCAAAARQWKKYDYWGQGTQVTVSS” here?
The value was “high polyreactivity”.
